Measured values published in US20210130454A1 (BLUEFIN BIOMEDICINE, published 2021).

Assays:
[1] = biological target: T1, recombinant human SEZ6L2 (extracellular portion of human SEZ6L2 fused to six C-terminal histidine-tag repeats) (human, UniProt Q6UXD5 28-844); experiment: BLI (ForteBio Octet Red96), antibody on Protein A biosensors, recombinant target protein in solution
T1 construct: also called SEZ6L2-his; recombinant SEZ6L2

[2] = biological target: T2, recombinant cynomolgus monkey SEZ6L2 (cynomolgus monkey, UniProt G7Q0V6 28-844); experiment: as above
T2 construct: The construct is not described; also called cynomolgus monkey SEZL2

[3] = biological target: T3, human SEZ6L on cells (293-SEZ6L) (human, UniProt Q9BYH1 29-1024); experiment: flow cytometry on live 293-SEZ6L cells, Alexa Fluor 488 anti-human IgG secondary [continued), panel E]
T3 construct: whole, on cells; also called Seizure 6-like Protein
T3 sequence (looked up): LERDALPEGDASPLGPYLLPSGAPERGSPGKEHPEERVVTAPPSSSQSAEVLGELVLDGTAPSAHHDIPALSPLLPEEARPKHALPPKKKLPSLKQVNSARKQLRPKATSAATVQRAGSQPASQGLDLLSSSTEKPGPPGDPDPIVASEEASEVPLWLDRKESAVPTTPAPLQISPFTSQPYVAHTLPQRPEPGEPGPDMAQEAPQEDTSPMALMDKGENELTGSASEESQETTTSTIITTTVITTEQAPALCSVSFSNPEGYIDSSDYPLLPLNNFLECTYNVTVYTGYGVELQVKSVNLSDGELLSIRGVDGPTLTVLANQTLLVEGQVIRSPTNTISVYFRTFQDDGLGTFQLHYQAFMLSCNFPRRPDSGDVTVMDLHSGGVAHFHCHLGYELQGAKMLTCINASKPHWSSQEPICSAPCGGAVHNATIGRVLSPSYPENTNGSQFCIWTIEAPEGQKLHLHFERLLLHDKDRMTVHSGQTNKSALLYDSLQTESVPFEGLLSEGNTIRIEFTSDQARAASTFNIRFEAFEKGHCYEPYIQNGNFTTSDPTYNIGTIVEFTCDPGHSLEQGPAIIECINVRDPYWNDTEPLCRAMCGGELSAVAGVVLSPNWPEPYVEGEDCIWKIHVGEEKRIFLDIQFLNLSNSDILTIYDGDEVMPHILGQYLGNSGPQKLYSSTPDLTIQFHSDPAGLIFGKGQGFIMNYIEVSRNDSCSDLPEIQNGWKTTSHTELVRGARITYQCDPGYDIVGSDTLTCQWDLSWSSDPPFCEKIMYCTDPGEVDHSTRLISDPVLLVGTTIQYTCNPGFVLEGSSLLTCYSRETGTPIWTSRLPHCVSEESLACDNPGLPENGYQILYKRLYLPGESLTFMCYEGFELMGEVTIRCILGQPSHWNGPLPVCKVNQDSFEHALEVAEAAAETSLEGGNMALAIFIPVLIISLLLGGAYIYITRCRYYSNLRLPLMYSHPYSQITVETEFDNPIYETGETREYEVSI

[4] = biological target: T4, human SEZ6 on cells (293-SEZ6) (human, UniProt Q53EL9 20-994); experiment: flow cytometry on live 293-SEZ6 cells, Alexa Fluor 488 anti-human IgG secondary [continued), panel E]
T4 construct: whole, on cells; also called Seizure Protein 6 Homolog
T4 sequence (looked up): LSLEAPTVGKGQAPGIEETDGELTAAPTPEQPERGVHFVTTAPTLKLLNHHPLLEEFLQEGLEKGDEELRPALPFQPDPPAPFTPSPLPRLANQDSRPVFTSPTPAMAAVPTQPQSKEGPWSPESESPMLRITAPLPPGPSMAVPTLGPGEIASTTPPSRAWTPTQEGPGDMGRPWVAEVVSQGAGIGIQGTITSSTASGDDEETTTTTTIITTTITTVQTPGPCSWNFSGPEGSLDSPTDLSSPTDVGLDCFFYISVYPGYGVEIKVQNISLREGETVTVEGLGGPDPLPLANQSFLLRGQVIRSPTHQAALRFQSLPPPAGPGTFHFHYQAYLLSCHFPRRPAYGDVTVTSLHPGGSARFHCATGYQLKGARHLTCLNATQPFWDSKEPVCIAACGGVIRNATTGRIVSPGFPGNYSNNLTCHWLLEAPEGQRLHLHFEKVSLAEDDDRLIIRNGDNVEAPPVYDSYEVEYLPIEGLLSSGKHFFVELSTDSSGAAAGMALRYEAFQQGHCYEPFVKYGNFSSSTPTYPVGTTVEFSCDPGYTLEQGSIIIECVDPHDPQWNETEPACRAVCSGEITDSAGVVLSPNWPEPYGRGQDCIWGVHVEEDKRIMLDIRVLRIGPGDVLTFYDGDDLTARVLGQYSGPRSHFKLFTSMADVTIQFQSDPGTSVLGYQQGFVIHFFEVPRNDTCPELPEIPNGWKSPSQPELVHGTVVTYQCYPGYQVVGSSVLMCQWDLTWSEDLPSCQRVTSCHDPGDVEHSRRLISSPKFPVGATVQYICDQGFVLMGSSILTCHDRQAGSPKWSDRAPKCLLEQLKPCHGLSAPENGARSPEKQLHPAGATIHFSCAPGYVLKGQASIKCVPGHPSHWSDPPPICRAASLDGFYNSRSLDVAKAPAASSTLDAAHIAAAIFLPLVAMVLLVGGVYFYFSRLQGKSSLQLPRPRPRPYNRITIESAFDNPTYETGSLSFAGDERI

[5] = biological target: T3, human SEZ6L on cells (293-SEZ6L); experiment: flow cytometry on live 293-SEZ6L cells, Alexa Fluor 488 anti-human IgG secondary [continued), panel L]
[6] = biological target: T4, human SEZ6 on cells (293-SEZ6); experiment: flow cytometry on live 293-SEZ6 cells, Alexa Fluor 488 anti-human IgG secondary [continued), panel L]
[7] = biological target: T4, human SEZ6 on cells (293-SEZ6); experiment: flow cytometry on live 293-SEZ6 cells, Alexa Fluor 488 anti-human IgG secondary [continued), panel K]
[8] = biological target: T3, human SEZ6L on cells (293-SEZ6L); experiment: flow cytometry on live 293-SEZ6L cells, Alexa Fluor 488 anti-human IgG secondary [continued), panel K]
[9] = biological target: T3, human SEZ6L on cells (293-SEZ6L); experiment: flow cytometry on live 293-SEZ6L cells, Alexa Fluor 488 anti-human IgG secondary [panel C]
[10] = biological target: T4, human SEZ6 on cells (293-SEZ6); experiment: flow cytometry on live 293-SEZ6 cells, Alexa Fluor 488 anti-human IgG secondary [panel C]
[11] = biological target: T3, human SEZ6L on cells (293-SEZ6L); experiment: flow cytometry on live 293-SEZ6L cells, Alexa Fluor 488 anti-human IgG secondary [continued), panel J]
[12] = biological target: T4, human SEZ6 on cells (293-SEZ6); experiment: flow cytometry on live 293-SEZ6 cells, Alexa Fluor 488 anti-human IgG secondary [continued), panel J]
[13] = biological target: T4, human SEZ6 on cells (293-SEZ6); experiment: flow cytometry on live 293-SEZ6 cells, Alexa Fluor 488 anti-human IgG secondary [panel B]
[14] = biological target: T5, human SEZ6L2 on cells (293-SEZ6L2, HEK 293 cells transfected with human SEZ6L2, and SEZ6L2-expressing tumor … (human, UniProt Q6UXD5 28-910)); experiment: flow cytometry on live 293-SEZ6L2 cells, primary antibody 1 ug/ml, Alexa Fluor 488 anti-human IgG secondary [panel B]
T5 construct: Tumor cell lines express the endogenous protein; also called hSEZ6L2

[15] = biological target: T3, human SEZ6L on cells (293-SEZ6L); experiment: flow cytometry on live 293-SEZ6L cells, Alexa Fluor 488 anti-human IgG secondary [panel B]
[16] = biological target: T3, human SEZ6L on cells (293-SEZ6L); experiment: flow cytometry on live 293-SEZ6L cells, Alexa Fluor 488 anti-human IgG secondary [panel D]
[17] = biological target: T4, human SEZ6 on cells (293-SEZ6); experiment: flow cytometry on live 293-SEZ6 cells, Alexa Fluor 488 anti-human IgG secondary [panel D]

T1 sequence (Q6UXD5 other isoform, or with tags, fused parts or gaps): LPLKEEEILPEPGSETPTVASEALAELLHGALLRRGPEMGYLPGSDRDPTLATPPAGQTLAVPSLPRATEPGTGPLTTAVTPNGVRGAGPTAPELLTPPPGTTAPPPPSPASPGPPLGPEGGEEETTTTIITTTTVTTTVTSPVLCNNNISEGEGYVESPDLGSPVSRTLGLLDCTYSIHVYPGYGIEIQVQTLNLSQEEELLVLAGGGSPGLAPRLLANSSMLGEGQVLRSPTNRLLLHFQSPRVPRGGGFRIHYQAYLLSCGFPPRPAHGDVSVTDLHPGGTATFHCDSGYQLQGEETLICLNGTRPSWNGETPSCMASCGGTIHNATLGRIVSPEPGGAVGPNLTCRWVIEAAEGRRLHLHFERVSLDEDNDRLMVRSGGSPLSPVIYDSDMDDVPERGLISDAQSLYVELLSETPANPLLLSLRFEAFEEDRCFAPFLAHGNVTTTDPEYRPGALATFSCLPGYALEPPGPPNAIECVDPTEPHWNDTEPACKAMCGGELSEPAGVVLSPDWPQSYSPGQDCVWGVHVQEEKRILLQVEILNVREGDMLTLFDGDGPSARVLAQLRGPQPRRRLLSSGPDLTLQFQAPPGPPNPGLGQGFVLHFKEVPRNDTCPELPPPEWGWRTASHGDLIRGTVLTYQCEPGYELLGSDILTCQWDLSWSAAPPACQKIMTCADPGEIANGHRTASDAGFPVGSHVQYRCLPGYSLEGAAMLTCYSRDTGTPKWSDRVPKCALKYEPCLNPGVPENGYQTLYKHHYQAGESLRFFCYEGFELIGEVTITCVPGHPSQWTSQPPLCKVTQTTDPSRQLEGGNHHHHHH
T5 sequence (Q6UXD5 28-910): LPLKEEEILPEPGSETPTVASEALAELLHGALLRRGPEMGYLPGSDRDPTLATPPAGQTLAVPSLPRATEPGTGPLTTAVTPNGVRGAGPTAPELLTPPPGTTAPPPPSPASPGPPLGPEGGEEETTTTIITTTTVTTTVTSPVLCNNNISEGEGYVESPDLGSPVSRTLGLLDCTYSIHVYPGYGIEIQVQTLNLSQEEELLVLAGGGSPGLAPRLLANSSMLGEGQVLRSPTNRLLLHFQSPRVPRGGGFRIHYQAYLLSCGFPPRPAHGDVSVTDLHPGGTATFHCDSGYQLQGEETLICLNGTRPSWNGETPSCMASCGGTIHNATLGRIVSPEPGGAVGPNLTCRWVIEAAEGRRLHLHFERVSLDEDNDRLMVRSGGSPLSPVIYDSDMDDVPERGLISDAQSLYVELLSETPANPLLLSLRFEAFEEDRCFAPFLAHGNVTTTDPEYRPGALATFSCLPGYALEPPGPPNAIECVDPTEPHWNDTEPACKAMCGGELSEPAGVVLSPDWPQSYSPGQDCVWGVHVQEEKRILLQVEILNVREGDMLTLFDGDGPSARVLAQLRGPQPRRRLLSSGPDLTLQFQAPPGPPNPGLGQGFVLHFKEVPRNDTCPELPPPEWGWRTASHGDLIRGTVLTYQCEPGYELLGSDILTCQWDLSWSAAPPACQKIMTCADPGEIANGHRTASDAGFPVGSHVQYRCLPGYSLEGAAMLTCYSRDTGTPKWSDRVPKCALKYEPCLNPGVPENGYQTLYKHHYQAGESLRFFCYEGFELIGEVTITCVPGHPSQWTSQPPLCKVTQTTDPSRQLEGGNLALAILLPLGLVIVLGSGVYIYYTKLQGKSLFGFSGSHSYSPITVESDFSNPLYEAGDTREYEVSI

B1: human anti-SEZ6L2 antibody 3A3 (antibody, V domains shown)
VH: QVQLQESGPGLVKPSGTLSLTCAVSGGSISSSNWWSWVRQPPGKGLEWIGEIYHSGSTNYNPSLKSRVTISVDKSKNQFSLKLSSVTAADTAVYYCAAYSGSYFEYWGQGTLVTVSS
VL: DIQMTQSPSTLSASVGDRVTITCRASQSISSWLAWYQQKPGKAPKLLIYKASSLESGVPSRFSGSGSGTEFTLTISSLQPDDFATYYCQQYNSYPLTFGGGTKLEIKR
notes: Fully human antibody from H2L2 mice
With B1 the Kd [1] was 24 nM, the Kd [2] was 26 nM and the binding result [3] was “no binding (tested: 1 ug/ml)”. B1: no binding (tested: 1 ug/ml) [4].

B2: humanized anti-SEZ6L2 antibody 20C4 (antibody, human IgG1, V domains shown)
VH: EVQLVESGGGLVQPGGSLRLSCAASGFTFTDYYMSWVRQAPGKGLEWVALIRNKANGYTTEYSASVKGRFTISRDNSKNSLYLQMNSLRAEDTAVYYCARNGLYGLFAYWGQGTLVTVSS
VL: DIVMTQTPLSIPVTPGEPASISCRSSTSLLESSGKHRLYWYLQKPGQSPQLLIYYMSNLASGVPDRFSGSGSGTDFTLKISRVEAEDFGVYYCMQSLEYPLTFGAGTKVEIKR
notes: also called 20C4:red
In the case of B2, the Kd [1] is reported as 3 nM, the Kd [2] is reported as 3 nM and the binding result [5] is reported as “no binding (tested: 1 ug/ml)”. B2: no binding (tested: 1 ug/ml) [6].

B3: humanized anti-SEZ6L2 antibody 16H8 (antibody, human IgG1, V domains shown)
VH: QIQLVQPGAEVKKPGASVKVSCKASGYTFTSYWMYWVRQAPGQGLEWMGAIYPRDSDTSYNQKFKGRVTMTRVTSTSTVYMELSSLRSEDTAVYYCTRGDYYYGSSYYAMDYWGQGTTVTVSS
VL: DIVMTQSPLSLPVTPGEPASISCSSSKSLLHSNGITYLYWYLQKPGQSPQLLIYRMSNLASGVPDRFSGSGSGTDFTLKISRVEAEDVGVYYCAQMLERPYTFGQGTKVEIKR
notes: Humanized from mu16H8; also called 16H8:A3F5
With B3 the Kd [1] was 2 nM, the binding result [7] was “no binding (tested: 1 ug/ml)” and the binding result [8] was “no binding (tested: 1 ug/ml)”.

B4: human anti-SEZ6L2 antibody 3A1 (antibody, V domains shown)
VH: QVQLVQSGAEVKKPGASVKVSCKASGFTFTGYYILWMRQAPGQGLEWMGWINPNNGGTHYAQKFQGRVTMTRDTSISTAYMELSRLRSDDTAVYYCARDSGHDWYFDLWGRGTLVTVSS
VL: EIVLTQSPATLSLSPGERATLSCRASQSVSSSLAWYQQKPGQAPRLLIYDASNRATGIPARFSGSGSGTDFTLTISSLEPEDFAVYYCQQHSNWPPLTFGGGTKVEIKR
notes: Fully human antibody from H2L2 mice; it was captured on Protein A and detected with anti-human IgG
B4 was tested, and the binding result [9] was “no binding (tested: 1 ug/ml)”, the Kd [1] was 0.3 nM and the Kd [2] was 0.3 nM. B4: no binding (tested: 1 ug/ml) [10].

B5: humanized anti-SEZ6L2 antibody 3E2 (antibody, human IgG1, V domains shown)
VH: EVQLVESGGGLVQPGGSLKLSCAASGFSFNTITMNWVRQASGKGLEWVGRIRSKSNNYATYYADAVKDRFTISRDDSKNTAYLQMNSLKTEDTAVYYCVRGIFSGYVYAMDYWGQGTLVTVSS
VL: DVVMTQSPLSLPVTVGQPASISCRSSQSIVHSNGNTYLEWFQQRPGQSPRVLIYKVSNRFSGVPDRFSGSGSGTDFTLKISRVEAEDVGVYYCFQGSHVPYTFGGGTKLEIKR
notes: also called 3E2:7D4
In the case of B5, the Kd [1] is reported as 2 nM, the Kd [2] is reported as 2 nM and the binding result [11] is reported as “no binding (tested: 1 ug/ml)”. B5: no binding (tested: 1 ug/ml) [12].

B6: human anti-SEZ6L2 antibody 1C6 (antibody, V domains shown)
VH: QVQLQESGPGLVKPSETLSLTCTVSGGSISSYYWSWIRQPPGKGLEWIGYIYNSGSTNYNPSLKSRVTISVDTSKNQFSLKLSSVTAADTAVYYCARRGDQGYWYFDLWGRGTLVTVSS
VL: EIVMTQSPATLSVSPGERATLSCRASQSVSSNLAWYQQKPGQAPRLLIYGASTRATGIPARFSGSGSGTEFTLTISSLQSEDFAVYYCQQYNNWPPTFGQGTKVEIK
notes: also called 106
B6: no binding (tested: 1 ug/ml) [13]; binds [14]; no binding (tested: 1 ug/ml) [15].

B7: human anti-SEZ6L2 antibody 3A2 (antibody, V domains shown)
VH: QVQLQESGPGLVKPSGTLSLTCAVSGGSISSYHWWSWVRQPPGKGLEWIGEIYHSGSTNYNPSLKSRVTISVDKSKNQFSLKLSSVTAADTAVYYCARWGRIAVADYWGQGTLVTVSS
VL: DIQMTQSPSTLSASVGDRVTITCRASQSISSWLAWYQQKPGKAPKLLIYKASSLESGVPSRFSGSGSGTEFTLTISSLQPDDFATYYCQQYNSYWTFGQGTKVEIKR
notes: as for B1
B7 was tested, and the binding result [16] was “no binding (tested: 1 ug/ml)”, the Kd [1] was 3 nM and the Kd [2] was 3 nM. B7: no binding (tested: 1 ug/ml) [17].
